Experiment: yeast display, Sf9 membrane polyspecificity reagent, FACS + sequencing; frameworks hold sequencing errors
How it was run: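 Nanobodies from a synthetic yeast display library (Saccharomyces cerevisiae BJ5465), induced 36–48 hours with galactose, were stained 1 hour at 4 °C with 10% biotinylated, detergent-solubilized Sf9 membrane reagent, enriched on streptavidin microbeads, then FACS-sorted. Anti-HA (expression) and streptavidin (reagent binding) fluorescence set low and high (top ~1%) gates. Polyreactivity labels come from the gate of origin. Genes were colony-PCR amplified, MiSeq 2 × 250 sequenced and filtered by CDR length.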

| Sequence | polyreactivity (PSR sort gate) |
| --- | --- |
| QVQLVESGGGLVQAGGSLRLSCAASGFTFDWYAMGWYRQAPGKERELVAAMYYADSVKGRFTISRDNAKNTVYLQMNSLKPEDTAVYYCNAGGYFFPTVYHYGYWGQGTQVTVSS | low polyreactivity |
| QVQLVESGGGLVQAGGSLRLSCAASGFTFDYNAMGWYRQAPGKDRELVAAISESGGSTYYADSVKGRFTISRDNAKNTVYLQMNSLKPEDTAVYYCPTDFPVYYDYGYWGQGTQVTVSS | high polyreactivity |
| QVQLVESGGGLVQAGGSLRLSCAASGFTFDYNPMGWYRQAPGKERELVAAISNTGDSTYYADSVKGRFTISRDNAKNTDYLQMNSLKPDDTAVYYCAADCLFDVYWEYDYWGQGTQVTVSS | low polyreactivity |
| QVQLVESGGGLVQAGGSLRLSCAASGFTFDYYAMGWYRQAPGKERELVAVITSRGGSTFYADSVKGRFTISRDNAKNTVYLQMNSLKPEDTAVYYCARQHYRLFRPYDYWGQGTQVTVSS | high polyreactivity |
| QVQLVESGGGLVQAGGSLRLSCAASGFTFDYYTMGWYRQAPGKERELVATITRSAGRTYYADSVKGRFTISRDNAKNTVYLQMNSLKPEDTAVYYCNADAYVYFDDGDYWGQGTQVTVSS | low polyreactivity |
| QVQLVESGGGLVQAGGSLRLSCAASGFTFEDYAMGWYRQAPGTERELVAAISSRGTSTYYADSVKGRFTISRDNAKNTVYLQMNSLKPEDTAVYYFNKRGWYPYGYWGQGTQVTVSS | high polyreactivity |
| QVQLVESGGGLVQAGGSLRLSCAASGFTFEENAMGWYRPAPGKERELVAAINWSGGNTYYADSVKGRFTISRDNAKNPDSLQMNSLKPEDSAVYYCNAAGAGDDYDYWGQGTQVTVSS | high polyreactivity |
| QVQLVESGGGLVQAGGSLRLSCAASGFTFEGYAMGGYRQAPGKERELVAAINGSGGSTYYADSVKGRFTISRDYAKNTVYLQMNSLKPEDTAVYYCAKSGYGNRGFDYWGQGTQVTVSS | low polyreactivity |
| QVQLVESGGGLVQAGGSLRLSCAASGFTFEKNAMGWYRQAPGKERELVAAISRGGSTYADSVKGRFTISRDNAKNTVYLQMNSLKPEDTAVYYCAGDTVYIFSSAINGEFGYWGQGTQVTVSS | low polyreactivity |
| QVQLVESGGGLVQAGGSLRLSCAASGFTFERNAMGWYRQAPGKERELVATISQSGTNTYYADSVKGRFTISRDNAKNTVYLQMNSLKPEDTAVYYCNARYLFYRYDYWGQGTQVTVSS | low polyreactivity |
| QVQLVESGGGLVQAGGSLRLSCAASGFTFEYYAMGWYRPAPGKERELVADITTSSAGTYYADSVKGRFTISRDNAKNTVYLQMNSLKPEDTAVYYCNRDDLNTGEDLDYWGQGTQVTVSS | low polyreactivity |
| QVQLVESGGGLVQAGGSLRLSCAASGFTFFDYVMGWYRQAPGKERELVAAISSSGGSTNYADSVKGRFTISRDHAKNTVYLQMNSLKPEDTAVYYCNKVTYGYAYWRYDGYDYWGQGTQVTVSS | low polyreactivity |
| QVQLVESGGGLVQAGGSLRLSCAASGFTFFIYAMGWYTQAPGKEREFVAAITGSGGSTYYADSEKGRFTISRDNAKNTVYLQMNSLKTEVTAVYYCATGYWGRRRGGWRSGYWGQGTQVTVSS | high polyreactivity |
| QVQLVESGGGLVQAGGSLRLSCAASGFTFFKYAMGWYRQAPGKERELVAAISSSGGSTYYADSVKGRFTISRDNAKNTVYLQMNSLKPEDSAVYYCNRPAAVYFKLVTAYDYWGQGTQVTVSS | high polyreactivity |
| QVQLVESGGGLVQAGGSLRLSCAASGFTFFLNAMVWSRPAPGKERELVAAITYSGDSTYYADSVKGRFTISRDNAKNTVYLQMNSLKPEDTAVYYCAAASKFGLYEYEYWGQGTQVTVSS | low polyreactivity |
| QVQLVESGGGLVQAGGSLRLSCAASGFTFFLYTMGWYRQAPGKERELVATITSAGTTNYADSVKGRFTISRDNAKNTVYLQMHSLKPEDTAVDYCNADRWEYDYWGQGTQVTVSS | low polyreactivity |
| QVQLVESGGGLVQAGGSLRLSCAASGFTFFSKYVMGWYSQAPRKERELVAAISSSGGTTYYADSVKGRFTISRDNAKNTVYLQMNSLKPEDTAVYYCAARLVSSTFQYNMYYWGQGTQVTVSS | high polyreactivity |
| QVQLVESGGGLVQAGGSLRLSCAASGFTFFSNAMGWYRQAPGKEREFVASISRSGGRTYYADSVKGRFTISRDNAKNTVYLQMNSLKPEDTAVYYCAADVPYYLHNHRYGYWGQGTQVTVSS | high polyreactivity |
| QVQLVESGGGLVQAGGSLRLSCAASGFTFFYYVMGWYRQAPGKERELVAAISSGGSTYYADSVKGRFTISRDNAKNTVYLQMNSLKPEDTAVYYCNAVYRSTWWGYDYWGQGTQVTVSS | high polyreactivity |
| QVQLVESGGGLVQAGGSLRLSCAASGFTFFYYVMGWYRQAPGKERELVAAITRGGSTYYADSVKGRFTISRDNAKNTVYLQMNSLKPEDTAVYYCNVAEPGYYYGYGDYGMDYWGQGTQVTVSS | high polyreactivity |
| QVQLVESGGGLVQAGGSLRLSCAASGFTFGANVMGWYRQAPGKERELVAAINTRGSRTYYADSVKGRFTISRDIAKNTVYLQMNSLKPEDTAVYYCAAALRKEYDYWGQGTQVTVSS | high polyreactivity |
| QVQLVESGGGLVQAGGSLRLSCAASGFTFGANVMGWYRQAPGKERELVAAITSSGGSTYYADSVKGRFTISRDKAKNTVYLQMYSLKPEDTAVYYCNRRRGAYYGYYWGQGTQVTVSS | high polyreactivity |

| Sequence | polyreactivity (PSR sort gate) |
| --- | --- |
| QVQLVESGGGLVQAGGSLRLSCAASGFTFGDYAMYWVRQAPGKGLEWVSSIDSRGGSTYYADSVKGRFTISRDNAKNTVYLQMNSLKPEDTAVYYCAKPGNHRYDYWGQGTQVTVSS | high polyreactivity |
| QVQLVESGGGLVQAGGSLRLSCAASGFTFGENAIGWYRQAPGKERELVAAIRYSGGSTYYADSVKGRFTISRDNAKNTVYLQMNSLKPEDTAVYYCNADTYALGAAVIPGDEYWGQGTQVTVSS | low polyreactivity |
| QVQLVESGGGLVQAGGSLRLSCAASGFTFGENDMGWYRQAPGKERELVATISYSGDSTYYAVSVKGLFTISRVNGKNTVYLHMNSLKPEDTAVYYCAAPLPHRVYDEGYWRQGTQVTVSS | low polyreactivity |
| QVQLVESGGGLVQAGGSLRLSCAASGFTFGFNTMGWYRQAPGKERELVATITSGGSTYYADSVKGRFTISRDNAKNTVYLQMNILKPEDTAVYYCAATAGSPWAKSRYGYWGQGTQVTVSS | low polyreactivity |
| QVQLVESGGGLVQAGGSLRLSCAASGFTFGFYAMGWYRQAPGEEWELVATISSAGSTTYADSVKGRFTLSRDNAKHTVYLQMNSLKPEETAVYYCATRRWSWPQFRTGDYWGQGTQVTVSS | high polyreactivity |
| QVQLVESGGGLVQAGGSLRLSCAASGFTFGFYAMGWYRQAPGKERELVATINYNGGSTYYADSVKGRFTISRDNAKNTVYLEMNSLKPEDTAVYYCATDYGWAPSYWYDSCGQGTQVTVSS | low polyreactivity |
| QVQLVESGGGLVQAGGSLRLSCAASGFTFGHYAMGRYRQAPGKERELVAAIRWSGGSTYYADSVKGRFTISRDNAKNTVYLQMNSLKPEDTAVYYCAADGEDSLWTGYDYDYWGQGTQVTVSS | low polyreactivity |
| QVQLVESGGGLVQAGGSLRLSCAASGFTFGHYAMGWDRQAPGKERELVAAISSGDRTYYADSVKGRFTISRDNAKNTVYLQMNSLKPEDTAVYSCNAVYYSWAQSARFDYWGQGTQVTVSS | low polyreactivity |
| QVQLVESGGGLVQAGGSLRLSCAASGFTFGHYAMGWYRQAPGKERELVAAIRWSGGSTYYADSVKGRITISRDHAKNTVYLQMNSLKPEDTAVYYCGARRFDGYDYDYWGQGTQVTESS | low polyreactivity |
| QVQLVESGGGLVQAGGSLRLSCAASGFTFGKYDMGWYRQAPGKERELVATITSSGDSTYYADSVKGRFTISRDNAKNTVYLQMNSLKPEDTAVYYCATPYGRHGWFYLYDYWGQGTQVTVSS | low polyreactivity |
| QVQLVESGGGLVQAGGSLRLSCAASGFTFGLNAMGWYRQAPGKERELVAGISRNGGRTYYADSVKGRFTISRDNAKNTVYLQMNSLKPDDTAVYYCNKVVSTYWTKSRVQWRYSRYDYWGQGTQVTVSS | high polyreactivity |
| QVQLVESGGGLVQAGGSLRLSCAASGFTFGNNAMGWYRQAPGKERELVAGISRTGGRTYYADSVKGRFTISRDNAKNTVYLQMNSLKPEDTAVYYCNAVSTLYTGYDYWGQGTQVTVSS | high polyreactivity |
| QVQLVESGGGLVQAGGSLRLSCAASGFTFGNNAMGWYRQAPGTERELVAAISYGGGRTYYADSVKGRFTISRDNAKNTVYLQMNSLKPEDTAVYYCAKDPKYPLSGGYDYWGQGTQVTVSS | low polyreactivity |
| QVQLVESGGGLVQAGGSLRLSCAASGFTFGNYAMGWYRQAPGKERELVAVISRSGGNTYYADSVKGRFTISRDNAKNTVYLQMNSLKPEDTAVYYCAATLVGKVFRRFDYWGQGTQVTVSS | high polyreactivity |
| QVQLVESGGGLVQAGGSLRLSCAASGFTFGPNTMGWYRQAPGKERELVAAISARGGRTYYADSVKGRFTISRDTAKNTVYLQMNSLKPEDTAVYYCAAPGYVRTGVTYGGYYWGQGTQVTVSS | high polyreactivity |
| QVQLVESGGGLVQAGGSLRLSCAASGFTFGPYTMGWYRQAPGKERELVAAISRSGTGTYYADSVKGRFTISRDNAKNTVYLQMNSLKPEDTAVYYCAADNGDNHGYYWGQGTQVTLSS | high polyreactivity |
| QVQLVESGGGLVQAGGSLRLSCAASGFTFGRNAIVWYRQAPGKERELVASIDWSGGSTYYADSVKGRFTISRDNAKNTVYLQMNSLKPEDTAVYYCAVGPNSVGNRSYGFDYWGQGTQVTVSS | low polyreactivity |
| QVQLVESGGGLVQAGGSLRLSCAASGFTFGRYAMGWYRQAPGKEREFVAAITWSGGGTYYADSVKGRFTISRDNAKNTVYLQMNSLKPEDTAVYYCAADRRAYGGGYWGQRTQVTVSS | high polyreactivity |
| QVQLVESGGGLVQAGGSLRLSCAASGFTFGRYAMGWYRQAPGKERELLAGITWSGGSTSYADSVKGRFTISRDNAKNTVYFQMNSLKPEDTAVYYCATRARYTRVQGRRYAYDYWGQGTQVTVSS | high polyreactivity |
| QVQLVESGGGLVQAGGSLRLSCAASGFTFGRYAMGWYRQAPGKERELVAAINYTDGSTYYADSVKGRFTISRDNAKNTVYLQMNSLKPEDTAGYYCAATTLSFEGGKYWSKYDYWGQGTQVTVSS | low polyreactivity |
| QVQLVESGGGLVQAGGSLRLSCAASGFTFGRYAMGWYRQAPGKERELVAAISFSGGRTYYADSVKGRFTISRDNAKNTVYLQMNSLKPEDTAVYYCNTAYWYSLYDYWGQGTQVTVSS | high polyreactivity |
